Earlier results, collected in article PMC5414288, “^99mTc-radiolabeled GE11-modified peptide for ovarian tumor targeting” (DARU Journal of Pharmaceutical Sciences, 2017).

Target: EGFR (Homo sapiens) (UniProt P00533)

GE11
Kd: 22 nM
